Publication PMC5809743

Target: FMDV protomer (VP0, VP3 and VP1) from full-length capsid precursor P1-2A processed by 3C protease (foot-and-mouth disease virus, strain O1 Manisa)
Assay: sucrose density gradient sedimentation

## FMDV protomer (VP0, VP3 and VP1) from full-length capsid precursor P1-2A processed by 3C protease (complex)
  reduction in pentamer formation with 17-DMAG, against no drug: 50%
  stoichiometry N: 5
